Several values for one entry are separate records, joined by “and”; a condition that tells them apart may be missing. Equal entries are not always repeated. Where two headings read alike, the source gives them in different places. Square brackets hold non-standard residues; d marks the D form. Peptide text beside a SMILES is read from it. * marks the point of attachment. DOTA = O=C(O)CN1CCN(CC(=O)O)CCN(CC(=O)*)CCN(CC(=O)O)CC1; Met(O2) = CS(=O)(=O)CC[C@H](N)C(=O)O; 2Thi = N[C@@H](Cc1cccs1)C(=O)O
Legend:
[1] = assay type: physicochemical
Description: A solution of purified ^177Lu-radioconjugate (around 1 MBq) or ^68Ga-radioconjugate (around 10 MBq) in 100 µL of 0.1M DPBS buffer was added into of 900 µL of 0.1 M DPBS buffer and 1000 µL of N-octanol (saturated with each other), vigorously stirred and centrifuged at 13,500 rpm for 5 min. Then, similar aliquots of both separated phases were taken for radioactivity measurement using a well-type NaI(Tl) detector. The lipophilicity values were expressed as the decimal logarithm of the distribution coefficient, D, which was calculated as a ratio of the radioconjugate radioactivity in the organic phase to that in the aqueous phase. Each experiment was performed in triplicate and the obtained values averaged. In parallel, the aqueous phases were analyzed by HPLC to confirm the stability of the studied radioconjugate during the experiment time.

human NK1 receptor = target: T1, human NK1 receptor (Homo sapiens, UniProt P25103); assay: Saturation binding of 177Lu-radioconjugates to hNK1R-CHO cells; conditions: maximal binding concentration, 60 min at 37 °C, specific activity 5 MBq/nmol
T1 construct: expressed in transfected cells; host or cells: CHO-K1 (hNK1R-CHO), gift from Dr. Attila Keresztes and Dr. John M. Streicher
T1 sequence (P25103 whole entry): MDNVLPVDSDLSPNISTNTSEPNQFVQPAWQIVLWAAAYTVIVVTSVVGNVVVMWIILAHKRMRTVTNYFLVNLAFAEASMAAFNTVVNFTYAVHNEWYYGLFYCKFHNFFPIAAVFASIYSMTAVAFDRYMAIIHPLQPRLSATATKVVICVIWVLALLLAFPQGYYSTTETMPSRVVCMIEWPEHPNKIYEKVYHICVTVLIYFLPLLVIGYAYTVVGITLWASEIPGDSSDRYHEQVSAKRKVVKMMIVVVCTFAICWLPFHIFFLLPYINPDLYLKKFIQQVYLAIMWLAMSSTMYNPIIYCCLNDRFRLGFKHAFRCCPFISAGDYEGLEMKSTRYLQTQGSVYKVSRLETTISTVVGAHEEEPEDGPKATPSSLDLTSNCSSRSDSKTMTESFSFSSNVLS
Description: Cells were grown in Ham’s F12 medium (Biological Industries, Beit HaEmek, Israel) supplemented with 10% Foetal Bovine Serum (Biological Industries, Beit HaEmek, Israel) and 400 μg/mL G418 (Capricorn Scientific, Ebsdorfergrund, Germany), incubated in a humidified atmosphere with 5% CO2 at 37 °C.
In brief, 10^5 cells per well were seeded into 24-well plates and incubated 24 h before the experiment. Just before the assay, the cells were washed with 37 °C Dulbecco’s PBS and then incubated with different concentrations of an analyzed radioconjugate (0.2–50 nM at a final volume) in the medium, with or without a 1000-fold molar excess of blocker (aprepitant or [Thi^8,Met(O2)^11]SP) in relation to the highest radioconjugate concentration applied for 60 min at 37 °C. After incubation time, the assay medium was collected into plastic tubes for radioactivity measurement and the cells were washed twice with ice-cold Dulbecco’s PBS. Subsequently, the cells were lysed using 1 M NaOH and collected into plastic tubes also for radioactivity measurement.
The radioactivity of collected samples were measured using a Wizard2 2-Detector Gamma Counter (PerkinElmer, Waltham, MA, USA). […] The Kd and BMAX with standard deviations (SD), were calculated using the “One site-total and nonspecific binding” nonlinear regression curve fit (GraphPad Prism 8, GraphPad, San Diego, CA, USA).

BMAX ± SD (human NK1 receptor)	SMILES	logD ([1]; pH 7.4, logD 68Ga-)	logD ([1]; pH 7.4, logD 177Lu-)
–	C[C@@H](O[C@H]1OCCN(Cc2nn(CCCCCCNC(=O)CN3CCN(CC(=O)O)CCN(CC(=O)O)CCN(CC(=O)O)CC3)c(=O)[nH]2)[C@H]1c1ccc(F)cc1)c1cc(C(F)(F)F)cc(C(F)(F)F)c1 [APT-Hex-DOTA, 2-(6-(2-(1,4,7-tris(carboxymethyl)-1,4,7,10-tetraazacyclododecan-10-yl)acetamido)hexyl)-5-([(2R,3S)-2-((R)-1-[3,5-bis(trifluoromethyl)phenyl]ethoxy)-3-(4-fluorophenyl)morpholino]methyl)-1H-1,2,4-triazol-3-one]	0.58 ± 0.03	1.23 ± 0.03
–	C[C@@H](O[C@H]1OCCN(Cc2nn(CCCCCCCCCCNC(=O)CN3CCN(CC(=O)O)CCN(CC(=O)O)CCN(CC(=O)O)CC3)c(=O)[nH]2)[C@H]1c1ccc(F)cc1)c1cc(C(F)(F)F)cc(C(F)(F)F)c1 [APT-Dec-DOTA, 2-(10-(2-(1,4,7-tris(carboxymethyl)-1,4,7,10-tetraazacyclododecan-10-yl)acetamido)decyl)-5-([(2R,3S)-2-((R)-1-[3,5-bis(trifluoromethyl)phenyl]ethoxy)-3-(4-fluorophenyl)morpholino]methyl)-1H-1,2,4-triazol-3-one]	1.6 ± 0.04	1.97 ± 0.02
–	C[C@@H](O[C@H]1OCCN(Cc2nn(CCCCCCCCNC(=O)CN3CCN(CC(=O)O)CCN(CC(=O)O)CCN(CC(=O)O)CC3)c(=O)[nH]2)[C@H]1c1ccc(F)cc1)c1cc(C(F)(F)F)cc(C(F)(F)F)c1 [APT-Oct-DOTA, 2-(8-(2-(1,4,7-tris(carboxymethyl)-1,4,7,10-tetraazacyclododecan-10-yl)acetamido)octyl)-5-([(2R,3S)-2-((R)-1-[3,5-bis(trifluoromethyl)phenyl]ethoxy)-3-(4-fluorophenyl)morpholino]methyl)-1H-1,2,4-triazol-3-one]	1.32 ± 0.04	1.64 ± 0.02
0.38 nM and 0.38 ± 0.02 nM	CC(C)C[C@H](NC(=O)CNC(=O)[C@H](Cc1cccs1)NC(=O)[C@H](Cc1ccccc1)NC(=O)[C@H](CCC(N)=O)NC(=O)[C@H](CCC(N)=O)NC(=O)[C@@H]1CCCN1C(=O)[C@H](CCCCN)NC(=O)[C@@H]1CCCN1C(=O)[C@H](CCCNC(=N)N)NC(=O)CN1CCN(CC(=O)O)CCN(CC(=O)O)CCN(CC(=O)O)CC1)C(=O)N[C@@H](CCS(C)(=O)=O)C(N)=O [[^177Lu]Lu-DOTA-[Thi^8,Met(O2)^11]SP, metal not drawn] ({DOTA}-RPKPQQF[2Thi]GL[Met(O2)]-NH2; N-terminus and C-terminus assumed)	–	–

Source: PMC8949964, “In Vitro Biological Evaluation of Aprepitant Based ^177Lu-Radioconjugates” (Pharmaceutics, 2022)
